Results from the RNAGym collection of RNA variant scans (doi:10.1073/pnas.2313332121).

B1: TPR t1 (parent)
chain: GACCAAUCUGCCCUCAGAGCUCGAGAACAUCUUCGGAUGCAGAGGAGGCAGGCUUCGGUGGCGCGAUAGCGCCAACGUCCUCAACCUCCAAUGCAUCCCACCACAUGAUGAUGCCUGAAGAGCCUUGGUUUUUUG

Variants of: B1
Assay: polymerase ribozyme fitness, log enrichment relative to wild type (log ratio); higher = more active; in vitro selection for triplet polymerase activity
Procedure, shortened: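 Both subunits of a heterodimeric triplet polymerase ribozyme were given their own mutant library, built by PCR and transcribed. Each library was annealed with a biotinylated primer, the partner subunit and triplets, incubated frozen at −7 °C, and its extended constructs gel-excised, captured on streptavidin beads and amplified by RT-PCR, all in one round done in triplicate. Fitness is the logarithm of genotype enrichment relative to wild-type enrichment, with replicates averaged by inverse-variance weighting. That logarithm is base 2, and Illumina-sequenced genotypes needed ≥10 input reads and ≥1 read per output.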

Point of comparison: C22A A37U A43C C114A A118G, “polymerase ribozyme fitness (log ratio)” value -6.5. Against it:
- U21A A41U C70U A95U — higher, -4.21
- U21G C34A C49U C102G C114A — lower, -8.62
- C20U G35U — higher, -5.32
- C20U G69A G120U — higher, -4.11
- C20U G113U G120U — higher, -3.12
- C22A A27G G60C A83G — higher, -6.08
- C20U C115U — higher, -1.73
- U21A A24G G36U G61C G120U U132A — higher, -3.58
- C22G A24U U30C A46G G48U G60C G110U — lower, -6.93
- U21G C73A C94A — higher, -2.37
- C20U G48U A91C C94G — higher, -4.07
- U21G G36A U54A G63U C82A C123A — higher, -3.52
- C20U G63C — higher, -2.1
- C20U G63A — higher, -1.73
- C22A C28U — higher, -4.42
- U21A G52C C56A C76U C101U — higher, -3.81
- C22A C70A G122U — higher, -5.4
- U21C G39A U54A U78A C98U G110U — higher, -6.3
- U21A A26G C73U G77A — higher, -2.54
- U21C A46G C53A G71C C98U — lower, -6.73
- U21C G57U C72G — higher, -2.29
- U21C C88G A121U — higher, -0.0258
- C20U G61A — higher, -1.13
- C20U G61C — higher, -2.87
- C22A G39U — higher, -5.33
- U21A U112A — higher, 1.06
- U21A G77A — higher, 0.00839
- U21A G36C G113U U133A — higher, -2.25
- C22A G61A A66C — higher, -5.28
- C22A — higher, -4.89
- C22G — higher, -2.97
- C20U G60U C72U C94U — higher, -1.4
- U21C C22G G63A G77U C94A G110C U112C — lower, -7.86
- C20U U32G C73G C97U C123U — higher, -5.73
- C22A C82U A90U U112A — higher, -4.93
- U21A C56U C62U C85G — higher, -3.76
- U21G G51U G69C A103U A111U G122U — lower, -7.01
- U21C G69A C104U — higher, -2.28
- U21A C72G — higher, -0.599
- U21A C72U — higher, -2.3
- U21G U38C G71C C99G C114U G120U A121U — lower, -7.22
- C22A A37G U81A A121C — higher, -6.04
- U21G G39A — higher, -1.39
- C20U C73U A95C U129A — higher, -4.3
- C22A C73G — higher, -4.45
- C22A C73U — higher, -5.07
- C22A A26G A83U — higher, -3.1
- C22A U33C C49U C79A C123G — lower, -7.05
- U21G A46U G69U G117C — higher, -4.95
- U21G C22A A74G — higher, -4.4
- C20U G113U — higher, -0.99
- C20U U78A C85U — higher, -2.54
- C20U G47C A75U A91U — higher, -4.77
- U21C A24G A26G C53G G60U — higher, -5.16
- C22A A46C U131A — higher, -4.88
- U21G C88A C97A A121C — higher, -5.55
- U21C A37G A46C C64G A100C C115U G117C — lower, -7.24
- C22A G61A U129G — higher, -5.57
- U21C A27G C56A C88A — higher, -4.66
- C22G A29U G120U U133A — higher, -5.17
- C22A A111C — higher, -4.49
- U21A G60U A83U U126C — higher, -0.934
- C20U U54A — higher, -0.906
- C20U G42U C56A A74U C115G — higher, -4.76
- U21A A50U G61U U130A — higher, -1.97
- U21C C49A A84U C88G C101G U133A — higher, -2
- U21A G52A A75U C115A C124A — higher, 1.07
- U21G G93A C114G — higher, -4.94
- U21A A103U — higher, -6.15
- C22A C53U C64U C124U — higher, -3.7
- U21G U55G U112A — higher, 1.42
- U21A U54C G61A A111G C123U — higher, -5.38
- U21C G63C — higher, -0.656
- U21C G120U — higher, -0.0201
- C20U G45A G93U — higher, -4.76
- C20U U78C — higher, -1.11
- U21A G60A C86U — higher, -1.23
- C22A G42A C73A — lower, -7.34
- U21C C49A U78G C123A — higher, -1.05
- C22A G110U — higher, -5.03
- C20U G60C C99U — higher, -4.59
- U21A G23A C76G G113U — lower, -7.66
- U21A C104U G117A G120U — higher, -3.67
